Laboratory results taken from patent US20170267986A1, “GENERATION OF MANNOSE-6-PHOSPHATE CONTAINING RECOMBINANT ALPHA-N-ACETYL GLUCOSAMINIDASE” (SHIRE HUMAN GENETIC THERAPIES, INC., priority 2014, published 2017).
Blank lines part the entries; values can stand above or below the molecule they belong to.

Assays:
rhNaglu = molecular target: T1, rhNaglu (Homo sapiens, UniProt P54802); assay: Naglu activity assay with various inhibitors (4MU-GlcNAc fluorescent substrate); assay type: biochemical; conditions: added at 0.0625, 0.25, 1, 4 and 8 mM; 37° C., 1 hour, pH 4.5
T1 construct: The N-terminal 23 amino acids are cleaved as the precursor protein enters the endoplasmic reticulum, resulting in a mature form; made in house; host or cells: human fibrosarcoma HT1080 cell clone over-expressing rhNaglu
T1 sequence (P54802 24-743): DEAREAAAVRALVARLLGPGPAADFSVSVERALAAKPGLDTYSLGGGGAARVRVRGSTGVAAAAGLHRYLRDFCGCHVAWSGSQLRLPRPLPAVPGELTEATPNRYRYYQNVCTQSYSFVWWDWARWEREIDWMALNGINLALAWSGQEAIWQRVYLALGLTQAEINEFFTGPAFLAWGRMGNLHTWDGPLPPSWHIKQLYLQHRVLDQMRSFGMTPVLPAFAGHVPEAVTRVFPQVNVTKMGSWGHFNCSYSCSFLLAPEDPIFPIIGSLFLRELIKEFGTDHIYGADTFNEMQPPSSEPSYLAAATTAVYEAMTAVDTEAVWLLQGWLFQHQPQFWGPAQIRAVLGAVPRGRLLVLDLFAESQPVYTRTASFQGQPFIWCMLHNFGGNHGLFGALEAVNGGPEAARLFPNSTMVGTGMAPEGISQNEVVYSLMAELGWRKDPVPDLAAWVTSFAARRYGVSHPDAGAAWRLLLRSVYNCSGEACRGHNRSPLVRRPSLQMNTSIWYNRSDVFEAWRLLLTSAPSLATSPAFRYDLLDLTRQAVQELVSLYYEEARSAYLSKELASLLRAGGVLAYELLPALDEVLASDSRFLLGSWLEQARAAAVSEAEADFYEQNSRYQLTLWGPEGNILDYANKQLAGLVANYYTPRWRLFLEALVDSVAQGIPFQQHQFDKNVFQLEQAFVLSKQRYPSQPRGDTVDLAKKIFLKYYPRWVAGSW
Protocol: A 10 mM stock of Naglu activity substrate solution was prepared by dissolving 5 mg of substrate, i.e., 4-methylumbelliferyl-N-acetyl-α-D-glucosaminide, in 250 μl of 100% DMSO. Naglu activity assay reaction buffer (0.1 M sodium acetate, 0.5 mg/ml BSA, pH 4.5) was then added to bring the volume up to 1318 μl. This 10 mM substrate stock solution was then diluted 10 fold with reaction buffer to make the final 1 mM substrate solution.
Samples and controls were pre-diluted in reaction buffer. 10 μl of each pre-diluted sample/control were applied in duplicate wells on a black clear bottom 96 well plate. 75 μl of 1 mM substrate solution containing various concentrations of inhibitors were added to each well. The plates were sealed with plate sealer and wrapped with aluminum foil. The plates were then placed in a Boekel Jitterbug Microplate Incubator Shaker (Cole-Parmer, Vernon Hills, Ill.) and shaken (setting at #1) at 37° C. for 1 hour. 200 μl of Stop Buffer (0.2 M Glycine, pH 10.7) were then added to all of the wells and fluorescence emission (excitation/emission at 360 nm/460 nm, respectively) was measured using a SpectraMax® Plus M2 plate reader from Molecular Devices (Sunnyvale, Calif.).
To further confirm that rhNaglu could hydrolyze UDP-GlcNAc, we investigated whether UDP-GlcNAc inhibited the hydrolysis by rhNaglu of the fluorescent substrate 4MU-GlcNAc (4-methylumbelliferyl-N-acetyl-α-D-glucosaminide) in a Naglu activity assay. Briefly, UDP-GlcNAc, as well as GlcNAc, UDP-GalNAc and Glucosamine, were added to the Naglu activity assay at 0.0625, 0.25, 1, 4 and 8 mM concentrations. The fluorescence emitted from these samples was compared to control samples only including rhNaglu and 4MU-GlcNAc.

[1] = molecular target: Soluble cation-independent mannose-6-phosphate receptor (sCI-M6PR); assay: plate-based sCI-M6PR binding ELISA (sCI-M6PR coated, HRP anti-Naglu polyclonal #2957 detection); KD extrapolated from binding curves
CI-M6PR = molecular target: T2, CI-M6PR (Homo sapiens, UniProt P11717); assay: Plate based sCI-M6PR binding assay (ELISA)
T2 construct: the secreted sCI-M6PR was purified from the tissue culture medium; made in house
Protocol: (1) Generation of sCI-M6PR (soluble CI-M6PR)—Full length M6PR was expressed in genetically modified tissue culture cells, and the secreted sCI-M6PR was purified from the tissue culture medium using an aminophenyl-M6P conjugated resin (Beljaars et al., 1999). N-terminal sequencing and LC/MS/MS analysis of the obtained protein confirmed the amino acid sequence of the sCI-M6PR, and MALDI analysis confirmed that its molecular mass was 279,492 Da.
100 μl of sCI-M6PR(2.5 μg/ml) in DPBS were coated on MaxiSorp® Nunc-Immuno flat-bottom 96-well plates (Thermo Fisher Scientific, Inc., Sunnyvale, Calif.). After incubation for 1 hour at 37° C., the plates was washed with ELISA wash buffer (0.1% Tween-20 in DPBS). sCI-M6PR coated wells were blocked with 300 μl ELISA blocking buffer (DPBS, 2% BSA, 0.05% Tween 20) at 37° C. for 1 hour. Appropriate dilutions of sGNPT-modified Naglu-Kif (and rhNaglu as control) were made in blocking buffer and added to the wells. After 1 hour incubation at 37° C., the plates were washed with ELISA wash buffer, and 100 μl of HRP-conjugated rabbit anti-Naglu polyclonal antibody #2957 diluted in blocking buffer were added. After 1 hour incubation at 37° C., the plates was washed again with ELISA wash buffer. The ELISA was developed using TMB peroxidase substrate solution (KPL, Inc., Gaithersburg, Mass.) by following the manufacturer's protocol.
sGNPT transfers the phospho-GlcNAc group from UDP-GlcNAc to mannose sugar, and the resulting mannose-6-phosphate-GlcNAc is called the Capped-M6P. During the normal intracellular glycosylation process, the decapping enzyme (N-acetylglucosamine 1-phosphodiester α-N-acetyglucosaminidase) removes the GlcNAc from the Capped-M6P, to generate M6P. But without decapping, the Capped-M6P can also bind to CI-M6PR. Capped-M6P binds to domain 5 of CI-M6PR rather than to domain 3 or 9, as M6P does (Bohnsack et al. 2009). The amount of Capped-M6P on Naglu-Kif can be indirectly evaluated using a CI-M6PR plate binding assay. In this binding assay the affinity with which Naglu-Kif bound to CI-M6PR increased in proportion to the amount of sGNPT used (35 μg, 70 μg and 140 (corresponding to about 4.2 μM) (green, red and empty circle in FIG. 8, respectively)) to modify Naglu-Kif and thus the extent of Capped-M6P found on Naglu-Kif (FIG. 8). […] These binding reactions were repeated in two different buffer systems, i.e., in a sodium acetate buffer (40 mM NaAc pH 6.5, 10 mM MnCl2, 10 mM MgCl2) and in a Tris buffer (50 mM Tris pH 7.4, 10 mM MnCl2, 10 mM MgCl2), which gave similar results. Contrary to Naglu-Kif, rhNaglu was not phosphorylated by sGNPT under the same conditions due to the lack of high-mannose glycans.

inhibition of rhNaglu activity toward 4MU-GlcNAc (rhNaglu): Inhibition
Molecule: CC(=O)N[C@H]1C(O)O[C@H](CO)[C@@H](O)[C@@H]1O (stereo partly drawn) [GlcNAc, N-acetylglucosamine]

inhibition of rhNaglu activity toward 4MU-GlcNAc (rhNaglu): not inhibited
Molecule: N[C@H]1C(O)O[C@H](CO)[C@@H](O)[C@@H]1O (stereo partly drawn) [glucosamine]

Kd [1]: 15.3 nM
Molecule: Naglu-Kif (high-mannose-containing recombinant human Naglu) modified in vitro with 35 µg sGNPT (from UniProt P54802 24-743) (enzyme)

Kd [1]: 5.92 nM
Molecule: Naglu-Kif (high-mannose-containing recombinant human Naglu) modified in vitro with 70 µg sGNPT (from UniProt P54802 24-743) (enzyme)

Kd [1]: 1.48 nM
Molecule: Naglu-Kif (high-mannose-containing recombinant human Naglu) modified in vitro with 140 µg sGNPT (from UniProt P54802 24-743) (enzyme)

Molecule: uridine diphosphate N-acetyl galactosamine [UDP-GalNAc]
inhibition of rhNaglu activity toward 4MU-GlcNAc (rhNaglu): not inhibited

Kd (CI-M6PR; Naglu-Kif modified with 35 μg sGNPT): 15.3 nM | Kd (CI-M6PR; Naglu-Kif modified with 70 μg sGNPT): 5.92 nM | Kd (CI-M6PR; Naglu-Kif modified with 140 sGNPT (about 4.2 μM)): 1.48 nM
B1: Naglu-Kif: high-mannose-containing recombinant human Naglu purified from HT1080 cells grown with 2 mg/l Kifunensine; tested after sGNPT modification (protein)
chain: T1 sequence (P54802 24-743)
